Results on one molecule are retold here after patent US11505586B2, “Interaction of Draxin and γ-netrins” (Max-Planck-Gesellschaft zur Foerderung der Wissenschaften …, priority 2014, dated 2022).

In one assay the target is T1, recombinant human UNC5B (Homo sapiens, UniProt Q8IZJ1).
T1 construct: made in house; host or cells: HEK293-6E
Put plainly: Surface Plasmon Resonance. The settings on record: Biacore 3000, Draxin 0-18.8 nM. The class given is binding. The procedure: (§1) Surface Plasmon Resonance (SPR) experiments were performed on a Biacore 3000 (GE Healthcare) at 25° C. using a SA sensor chip in 0.01 M HEPES, pH 7.4, 0.15 M NaCl, 0.005% Surfactant P20 (HBS-P) running buffer at a flow rate of 30 μl/min. The instrument was used according to manufacturer's instructions.
(§2) Recombinant human Draxin was purchased from R&D systems. Biotinylated recombinant human UNC5B, Netrin1 and DCC were produced recombinantly using the described mammalian expression system (HEK293-6E). Biotinylated proteins were immobilised on the SA coated sensor chip and Draxin was injected sequentially in increasing concentrations (0 nM, 1.2 nM. 2.3 nM, 4.7 nM, 9.4 nM, 18.8 nM) for 3 min. […] No binding of Draxin to UNC5B and DCC was detected (FIG. 14).

In another assay the target is T2, recombinant human DCC (Homo sapiens, UniProt P43146).
T2 construct: made in house; host or cells: HEK293-6E
T2 sequence (P43146 26-1097 limits assumed): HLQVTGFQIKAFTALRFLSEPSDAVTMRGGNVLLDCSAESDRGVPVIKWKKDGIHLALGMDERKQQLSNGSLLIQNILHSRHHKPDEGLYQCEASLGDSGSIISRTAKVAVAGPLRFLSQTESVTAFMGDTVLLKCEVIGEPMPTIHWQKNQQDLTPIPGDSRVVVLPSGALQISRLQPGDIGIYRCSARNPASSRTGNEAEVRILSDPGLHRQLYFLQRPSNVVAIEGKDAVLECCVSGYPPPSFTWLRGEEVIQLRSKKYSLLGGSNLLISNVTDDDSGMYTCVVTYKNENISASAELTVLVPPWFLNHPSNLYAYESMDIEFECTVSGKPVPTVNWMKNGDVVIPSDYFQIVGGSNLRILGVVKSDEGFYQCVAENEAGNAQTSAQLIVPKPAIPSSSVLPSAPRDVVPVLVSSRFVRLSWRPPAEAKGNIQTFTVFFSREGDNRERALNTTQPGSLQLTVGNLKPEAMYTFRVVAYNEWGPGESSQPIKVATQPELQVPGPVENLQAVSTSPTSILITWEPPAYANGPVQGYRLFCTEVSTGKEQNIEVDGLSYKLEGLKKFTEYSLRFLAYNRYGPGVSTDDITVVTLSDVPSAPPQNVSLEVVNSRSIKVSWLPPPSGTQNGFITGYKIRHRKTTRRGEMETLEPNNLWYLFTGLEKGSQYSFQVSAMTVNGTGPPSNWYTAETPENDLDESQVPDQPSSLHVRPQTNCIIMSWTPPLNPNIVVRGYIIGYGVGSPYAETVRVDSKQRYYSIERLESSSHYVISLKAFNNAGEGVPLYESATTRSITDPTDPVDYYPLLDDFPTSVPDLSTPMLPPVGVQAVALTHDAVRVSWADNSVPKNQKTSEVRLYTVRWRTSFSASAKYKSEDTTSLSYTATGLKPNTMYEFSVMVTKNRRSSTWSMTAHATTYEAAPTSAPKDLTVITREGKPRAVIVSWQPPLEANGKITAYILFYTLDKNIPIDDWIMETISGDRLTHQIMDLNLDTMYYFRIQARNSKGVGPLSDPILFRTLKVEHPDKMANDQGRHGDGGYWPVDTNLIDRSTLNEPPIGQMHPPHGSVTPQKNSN
Put plainly: Surface Plasmon Resonance. The class given is binding. To be noted: Biacore 3000, Draxin 0-18.8 nM. The procedure:
as §1, §2

The subject of a further assay is Netrin receptors. Put plainly: AVEXIS direct binding to Netrin receptors. More on the design: species or system zebrafish. The settings on record: AVEXIS platform. The text has this: By using an AVEXIS-based competition assay (FIG. 6 A) we tested whether the binding of DraxinA to Netrin1a has an influence on Netrins ability to bind to Netrin receptors. First we confirmed that we reliably detected the binding of Netrin1a to Netrin receptors of the DCC/Neo1 and Unc5 families with the AVEXIS method. We also tested whether Draxin is able to bind to the corresponding Netrin receptors. […] This has also been confirmed by a recent publication (Haddick et al. 2014). In the competition assay the extracellular domains (ECDs) of Netrin receptors have been used as prey proteins together with purified full length DraxinA and probed for binding against Netrin1a bait proteins. […] The inhibition is specific for DraxinA.

B1: Draxin: Recombinant human Draxin purchased from R&D systems (protein, listed as Homo sapiens)
chain: MAGPAIHTAPMLFLVLLLPLELSLAGALAPGTPARNLPENHIDLPGPALWTPQASHHRRRGPGKKEWGPGLPSQAQDGAVVTATRQASRLPEAEGLLPEQSPAGLLQDKDLLLGLALPYPEKENRPPGWERTRKRSREHKRRRDRLRLHQGRALVRGPSSLMKKAELSEAQVLDAAMEESSTSLAPTMFFLTTFEAAPATEESLILPVTSLRPQQAQPRSDGEVMPTLDMALFDWTDYEDLKPDGWPSAKKKEKHRGKLSSDGNETSPAEGEPCDHHQDCLPGTCCDLREHLCTPHNRGLNNKCFDDCMCVEGLRCYAKFHRNRRVTRRKGRCVEPETANGDQGSFINV
Take B1: in the assay with recombinant human UNC5B, the “binding to immobilised UNC5B” value is given as “No binding”. Moreover, the “binding to immobilised DCC” value with recombinant human DCC is recorded as “No binding”. Further, the “direct binding to Netrin receptors” value with Netrin receptors was “not able to detect direct binding”.
